Where no end group is shown, it is not given here.
Target: 2C11 human monoclonal antibody
Experiment: cell-based or functional assay

How did the Bethesda test: neutralization of the inhibiting activity of 2C11 (3.5 nM), IC50 turn out when Ac-SCHAWSNRRTCR (cysteine pairing not given here) [peptide 107 (…)] was run?
The Bethesda test: neutralization of the inhibiting activity of 2C11 (3.5 nM), IC50 was 19 µM.

What about the Bethesda test: peptide concentration for total neutralization of 2C11 (3.5 nM) of the same binder?
Its Bethesda test: peptide concentration for total neutralization of 2C11 (3.5 nM) is 100 µM.

And the in vivo (FVIII-deficient mice): procoagulant activity of injected FVIII kept with 2C11 (16.7 nM) plus peptide 107 (650 µM)?
The in vivo (FVIII-deficient mice): procoagulant activity of injected FVIII kept with 2C11 (16.7 nM) plus peptide 107 (650 µM) was 52%.

Target: 2C11 human monoclonal antibody
Experiment: competition ELISA: 2C11 preincubated with peptide at 0.002 (µM per paragraph 93), then on immobilised FVIII

How did the % inhibition turn out when Ac-CSKWHNRSKRHC (cysteine pairing not given here) [peptide 105 (…)] was run?
The % inhibition was 0%.

For Ac-KCGRWSNRSSCT (cysteine pairing not given here) [peptide 103 (…)], which % inhibition is on record?
The % inhibition was 0%.

Which % inhibition does the source give for Ac-CMKWSNRSSRWC (cysteine pairing not given here) [peptide 106 (…)] here?
The % inhibition was 0%.

For Ac-SCHAWSNRRTCR (cysteine pairing not given here) [peptide 107 (…)], which % inhibition is on record?
Its % inhibition is 0%.

For Ac-RCHAWSNRKSCV (cysteine pairing not given here) [peptide 109 (…)], which % inhibition is on record?
The % inhibition was 0%.

Which % inhibition does the source give for Ac-ECGSHAWGRRCK (cysteine pairing not given here) [peptide 104 (…)] here?
The % inhibition was 0%.

How did the % inhibition turn out when Ac-QCHTWSNRRSCL (cysteine pairing not given here) [peptide 108 (…)] was run?
Its % inhibition is 0%.

Target: 2C11 human monoclonal antibody
Experiment: competition ELISA: 2C11 preincubated with peptide at 200 (µM per paragraph 93), then on immobilised FVIII

How did the % inhibition turn out when Ac-CSKWHNRSKRHC (cysteine pairing not given here) [peptide 105 (…)] was run?
The % inhibition was 75.6%.

For Ac-KCGRWSNRSSCT (cysteine pairing not given here) [peptide 103 (…)], which % inhibition is on record?
The % inhibition was 62.7%.

Which % inhibition does the source give for Ac-CMKWSNRSSRWC (cysteine pairing not given here) [peptide 106 (…)] here?
Its % inhibition is 36.6%.

How did the % inhibition turn out when Ac-SCHAWSNRRTCR (cysteine pairing not given here) [peptide 107 (…)] was run?
The % inhibition was 90.5%.

With Ac-RCHAWSNRKSCV (cysteine pairing not given here) [peptide 109 (…)] as the binder, how does the % inhibition read?
Its % inhibition is 75%.

With Ac-ECGSHAWGRRCK (cysteine pairing not given here) [peptide 104 (…)] as the binder, how does the % inhibition read?
The % inhibition was 63.7%.

For Ac-QCHTWSNRRSCL (cysteine pairing not given here) [peptide 108 (…)], which % inhibition is on record?
The % inhibition was 60.7%.

Target: 2C11 human monoclonal antibody
Experiment: competition ELISA: 2C11 preincubated with peptide at 0.02 (µM per paragraph 93), then on immobilised FVIII

For Ac-CSKWHNRSKRHC (cysteine pairing not given here) [peptide 105 (…)], which % inhibition is on record?
The % inhibition was 0%.

Ac-KCGRWSNRSSCT (cysteine pairing not given here) [peptide 103 (…)] was tested. Which % inhibition did it give?
Its % inhibition is 0%.

How did the % inhibition turn out when Ac-CMKWSNRSSRWC (cysteine pairing not given here) [peptide 106 (…)] was run?
The % inhibition was 0%.

Which % inhibition does the source give for Ac-SCHAWSNRRTCR (cysteine pairing not given here) [peptide 107 (…)] here?
The % inhibition was 0%.

How did the % inhibition turn out when Ac-RCHAWSNRKSCV (cysteine pairing not given here) [peptide 109 (…)] was run?
The % inhibition was 0%.

How did the % inhibition turn out when Ac-ECGSHAWGRRCK (cysteine pairing not given here) [peptide 104 (…)] was run?
Its % inhibition is 0%.

Ac-QCHTWSNRRSCL (cysteine pairing not given here) [peptide 108 (…)] was tested. Which % inhibition did it give?
Its % inhibition is 0%.

Target: 2C11 human monoclonal antibody
Experiment: competition ELISA: 2C11 preincubated with peptide at 2 (µM per paragraph 93), then on immobilised FVIII

For Ac-CSKWHNRSKRHC (cysteine pairing not given here) [peptide 105 (…)], which % inhibition is on record?
Its % inhibition is 10.3%.

Ac-KCGRWSNRSSCT (cysteine pairing not given here) [peptide 103 (…)] was tested. Which % inhibition did it give?
Its % inhibition is 3.47%.

With Ac-CMKWSNRSSRWC (cysteine pairing not given here) [peptide 106 (…)] as the binder, how does the % inhibition read?
Its % inhibition is 0%.

Ac-SCHAWSNRRTCR (cysteine pairing not given here) [peptide 107 (…)] was tested. Which % inhibition did it give?
Its % inhibition is 37.3%.

For Ac-RCHAWSNRKSCV (cysteine pairing not given here) [peptide 109 (…)], which % inhibition is on record?
The % inhibition was 12.5%.

Which % inhibition does the source give for Ac-ECGSHAWGRRCK (cysteine pairing not given here) [peptide 104 (…)] here?
Its % inhibition is 13.4%.

Which % inhibition does the source give for Ac-QCHTWSNRRSCL (cysteine pairing not given here) [peptide 108 (…)] here?
Its % inhibition is 15.8%.

Target: 2C11 human monoclonal antibody
Experiment: competition ELISA: 2C11 preincubated with peptide at 20 (µM per paragraph 93), then on immobilised FVIII

Ac-CSKWHNRSKRHC (cysteine pairing not given here) [peptide 105 (…)] was tested. Which % inhibition did it give?
Its % inhibition is 45%.

Ac-KCGRWSNRSSCT (cysteine pairing not given here) [peptide 103 (…)] was tested. Which % inhibition did it give?
Its % inhibition is 28.3%.

For Ac-CMKWSNRSSRWC (cysteine pairing not given here) [peptide 106 (…)], which % inhibition is on record?
Its % inhibition is 22%.

With Ac-SCHAWSNRRTCR (cysteine pairing not given here) [peptide 107 (…)] as the binder, how does the % inhibition read?
Its % inhibition is 80%.

Ac-RCHAWSNRKSCV (cysteine pairing not given here) [peptide 109 (…)] was tested. Which % inhibition did it give?
The % inhibition was 37.5%.

How did the % inhibition turn out when Ac-ECGSHAWGRRCK (cysteine pairing not given here) [peptide 104 (…)] was run?
Its % inhibition is 30.7%.

How did the % inhibition turn out when Ac-QCHTWSNRRSCL (cysteine pairing not given here) [peptide 108 (…)] was run?
Its % inhibition is 26%.
